For experiment [1], the target named is T1, recombinant cynomolgus monkey PD-L1 with a C-terminal mouse IgG2a Fc tag (cynomolgus monkey (Macaca fascicularis)).
T1 construct: also called MfPD-L1-mFc; monkey PD-L1-mFc
Description: SPR (Biacore), mAb captured, 25C. The procedure:
(§1) Binding association and dissociation rate constants (kₐ and kd, respectively), equilibrium dissociation constants and dissociation half-lives (KD and t_{1/2}, respectively) of antigen binding to purified anti-PD-L1 monoclonal antibodies were determined using a real-time surface plasmon resonance biosensor assay on a Biacore 4000 instrument. The Biacore sensor surface was either derivatized with polyclonal rabbit anti-mouse antibody (GE, #BR-1008-38) or with monoclonal mouse anti-human Fc antibody (GE, #BR-1008-39) to capture approximately 200-300 RUs of anti-PD-L1 monoclonal antibodies, expressed with either a mouse Fc or with human Fc, respectively. […] Different concentrations of PD-L1 reagents were injected over the anti-PD-L1 monoclonal antibody captured surface at a flow rate of 30 μL/min. The binding of the PD-L1 reagents to the captured monoclonal antibodies was monitored for 3 to 4 minutes while the dissociation of antibody bound PD-L1 reagents was monitored for 10 minutes in HBST running buffer (0.01 M HEPES pH 7.4, 0.15 M NaCl, 3 mM EDTA, 0.05% v/v Surfactant tween-20). Experiments were performed at either 25° C. or 37° C. Kinetic association (kₐ) and dissociation (kd) rate constants were determined by processing and fitting the data to a 1:1 binding model using Scrubber 2.0c curve fitting software. Binding dissociation equilibrium constants (KD) and dissociative half-lives (t_{1/2}) were then calculated from the kinetic rate constants as: KD (M)=kd/kₐ and t_{1/2} (min)=[In2/(60*kd)].
In general terms: In SPR one partner is held on a chip, and binding of the other changes the refractive index at the surface.

Experiment [2] deals with T2, Human PD-L1 Dimer (human, UniProt Q9NZQ7 19-239).
T2 construct: also called hPD-L1 dimer; hPD-L1-hFc
Briefly: SPR (Biacore), mAb captured, 37C. The method, then: as §1

For experiment [3], the target named is T3, recombinant human PD-L1 (amino acids 19-239 of NP_054862.1) with a C-terminal myc-myc-hexahistidine tag (human).
T3 construct: also called hPD-L1-MMH; hPD-L1-MMH Monomer
Description: SPR (Biacore), mAb captured, 37C. The method, then:
as §1

The target of experiment [4] is T4, recombinant cynomolgus monkey PD-L1 with a C-terminal myc-myc-hexahistidine tag (cynomolgus monkey (Macaca fascicularis)).
T4 construct: also called MfPD-L1-MMH; MfPD-L1-MMH Monomer
Briefly: SPR (Biacore), mAb captured, 37C. The procedure:
as §1

Experiment [5] concerns the target T2, Human PD-L1 Dimer. Description: SPR (Biacore), mAb captured, 25C. The procedure: as §1
Experiment [6] deals with T4, recombinant cynomolgus monkey PD-L1 …. Description: SPR (Biacore), mAb captured, 25C. The method, then: as §1

T4 sequence (chain, as listed by the source limits assumed): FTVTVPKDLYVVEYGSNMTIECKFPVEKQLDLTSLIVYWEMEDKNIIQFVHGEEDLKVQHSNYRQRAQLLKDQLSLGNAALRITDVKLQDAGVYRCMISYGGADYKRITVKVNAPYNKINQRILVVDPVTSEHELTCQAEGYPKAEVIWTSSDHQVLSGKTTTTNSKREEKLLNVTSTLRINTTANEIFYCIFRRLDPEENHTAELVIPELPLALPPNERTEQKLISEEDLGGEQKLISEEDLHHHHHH
T1 sequence (chain, as listed by the source limits assumed): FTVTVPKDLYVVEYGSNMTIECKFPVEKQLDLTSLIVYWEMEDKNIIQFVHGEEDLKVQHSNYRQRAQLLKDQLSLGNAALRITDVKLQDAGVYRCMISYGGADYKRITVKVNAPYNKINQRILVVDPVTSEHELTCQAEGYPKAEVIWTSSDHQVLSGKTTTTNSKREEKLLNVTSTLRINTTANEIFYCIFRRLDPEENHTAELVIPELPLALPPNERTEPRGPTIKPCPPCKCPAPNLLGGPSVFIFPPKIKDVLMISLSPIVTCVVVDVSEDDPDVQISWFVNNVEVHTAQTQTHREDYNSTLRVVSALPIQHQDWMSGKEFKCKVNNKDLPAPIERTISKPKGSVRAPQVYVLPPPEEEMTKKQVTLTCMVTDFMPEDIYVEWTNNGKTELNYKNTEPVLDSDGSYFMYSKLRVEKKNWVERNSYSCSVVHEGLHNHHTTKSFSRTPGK
T2 sequence (Q9NZQ7 19-239): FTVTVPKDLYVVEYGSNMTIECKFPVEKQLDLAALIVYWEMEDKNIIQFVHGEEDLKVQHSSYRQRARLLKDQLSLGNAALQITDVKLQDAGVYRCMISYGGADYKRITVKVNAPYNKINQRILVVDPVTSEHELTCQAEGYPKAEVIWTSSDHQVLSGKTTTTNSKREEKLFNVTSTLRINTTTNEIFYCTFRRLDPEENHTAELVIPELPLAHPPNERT
T3 sequence (chain, as listed by the source limits assumed): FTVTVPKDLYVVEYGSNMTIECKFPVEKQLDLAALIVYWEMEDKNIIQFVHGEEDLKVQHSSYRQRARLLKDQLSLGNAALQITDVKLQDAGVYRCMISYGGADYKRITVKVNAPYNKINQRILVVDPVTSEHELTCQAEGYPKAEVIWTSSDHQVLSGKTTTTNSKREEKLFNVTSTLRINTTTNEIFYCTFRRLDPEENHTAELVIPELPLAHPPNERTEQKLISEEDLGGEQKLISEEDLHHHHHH

B1: H1H8314N (antibody, human IgG1, V domains shown)
VH: EVQLVESGGGVVRPGGSLRLSCAASGFTFDDYGMTWVRQAPGRGLEWVSGIHWHGKRTGYADSVKGRFTISRDNAKKSLYLQMNSLKGEDTALYHCVRGGMSTGDWFDPWGQGTLVIVSS
VL: DIQMTQSPSSLSASLGDRVTITCRASQSINSYLNWYQQKPGKAPKLLIYVASSLQSGVPSRFSGSGSGTEFTLTISNLQPEDFATYYCQQSYSTPPITFGQGTRLEIK
What is called Kd is the concentration at which binding is half-saturated. One may read the koff as the rate constant with which the complex falls apart. One may read the kon as the second-order rate constant of association. Regarding B1, in experiment [1], the Kd came out at 26.3 pM, the koff worked out at 6.77e-05 s⁻¹, the kon was 2.58e+06 M⁻¹ s⁻¹ and the t1/2 was 171 min.

B2: H1H9345P2 (antibody, human IgG1, V domains shown)
VH: EVQLVESGGGLVQPGGSLRLSCAASGFTISTNYMNWVRQAPGKGLEWVAVIYSSGSTYYIDSVKGRFTISRLTSKNTVYLQMSSLNSEDTAVYYCARGIRGFDIWGQGTMVTVSS
VL: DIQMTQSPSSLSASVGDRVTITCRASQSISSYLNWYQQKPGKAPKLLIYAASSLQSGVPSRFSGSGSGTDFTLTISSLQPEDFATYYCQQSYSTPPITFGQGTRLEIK
In the case of B2, the equilibrium dissociation constant (Kd) with Human PD-L1 Dimer [2] amounted to 297 pM; in experiment [3], 197000 pM; in experiment [4], 121000 pM; in the experiment with Human PD-L1 Dimer [5] it was 474 pM; in experiment [6] it was 77300 pM; in experiment [1], 512 pM. The koff in the experiment with Human PD-L1 Dimer [2] is 0.000203 s⁻¹; in experiment [3] it was 0.034 s⁻¹; in experiment [4], 0.0197 s⁻¹; with Human PD-L1 Dimer [5], 0.000237 s⁻¹; in experiment [6], 0.0085 s⁻¹; in experiment [1], 0.000151 s⁻¹. For the same molecule, the kon in the experiment with Human PD-L1 Dimer [2] is 682000 M⁻¹ s⁻¹; in experiment [3], 172000 M⁻¹ s⁻¹; in experiment [4] it was 164000 M⁻¹ s⁻¹; with Human PD-L1 Dimer [5], 500000 M⁻¹ s⁻¹; in experiment [6], 110000 M⁻¹ s⁻¹; in experiment [1] it was 296000 M⁻¹ s⁻¹. The t1/2 is 57 min with Human PD-L1 Dimer [2]; 0.3 min in experiment [3]; 0.6 min in experiment [4]; 49 min with Human PD-L1 Dimer [5]; 1.4 min in experiment [6]; 76 min in experiment [1].

B3: H1H9354P2 (antibody, human IgG1, V domains shown)
VH: EVQLVESGGGLVQPGGSLRLSCEASGFTVGVNHMNWVRQAPGKGLEWVSVIFSSGRTFYGDYVKGRLTIFRQTSQNTVYLQMNSLRSEDTAIYYCARGIGGLDIWGRGTMVTVSS
VL: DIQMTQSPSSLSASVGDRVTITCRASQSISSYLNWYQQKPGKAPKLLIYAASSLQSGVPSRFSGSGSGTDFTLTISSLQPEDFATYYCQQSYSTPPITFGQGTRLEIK
Consider B3, for which the dissociation constant Kd with Human PD-L1 Dimer [2] came to 317 pM; in experiment [3], 15400 pM; in experiment [4], 9820 pM; with Human PD-L1 Dimer [5] it was 689 pM; in experiment [6], 6640 pM; in experiment [1], 447 pM. Further, the off-rate (koff) came out at 0.000145 s⁻¹ with Human PD-L1 Dimer [2]; 0.00114 s⁻¹ in experiment [3]; 0.000844 s⁻¹ in experiment [4]; 0.000116 s⁻¹ with Human PD-L1 Dimer [5]; 0.000305 s⁻¹ in experiment [6]; 9.14e-05 s⁻¹ in experiment [1]. In addition, the on-rate (kon) in the experiment with Human PD-L1 Dimer [2] stood at 456000 M⁻¹ s⁻¹; in experiment [3], 73900 M⁻¹ s⁻¹; in experiment [4] it was 85900 M⁻¹ s⁻¹; with Human PD-L1 Dimer [5], 168000 M⁻¹ s⁻¹; in experiment [6], 46000 M⁻¹ s⁻¹; in experiment [1], 205000 M⁻¹ s⁻¹. Also, the t1/2 with Human PD-L1 Dimer [2] worked out at 80 min; in experiment [3] it was 10 min; in experiment [4] it was 14 min; in the experiment with Human PD-L1 Dimer [5] it was 100 min; in experiment [6] it was 38 min; in experiment [1], 126 min.

B4: H2aM8323N (antibody, mouse IgG2, V domains shown)
VH: QVQLVQSGAEVKMPGSSVRVSCKASGGIFSSSTISWVRQAPGQGLEWMGEIIPVFGTVNYAQKFQDRVIFTADESTTTAYMELSSLKSGDTAVYFCARNWGLGSFYIWGQGTMVTVSS
VL: EIVLTQSPGTLSLSPGERATLSCRASQSFNFNYLAWYQQKPGQAPRLLIYGASSRATGIPDRFSGSGSGTDFTLTINRLEPEDFGVFYCQQYESAPWTFGQGTKVEIK
notes: also called H2M8323N
On to B4, for which the Kd with Human PD-L1 Dimer [2] was 28 pM; in experiment [3] it was 497 pM; in experiment [4], 29500 pM; in the experiment with Human PD-L1 Dimer [5], 7.04 pM; in experiment [6] it was 15900 pM. In addition, the off-rate (koff) with Human PD-L1 Dimer [2] was 0.000121 s⁻¹; in experiment [3], 0.000684 s⁻¹; in experiment [4] it was 0.0282 s⁻¹; with Human PD-L1 Dimer [5], 2.05e-05 s⁻¹; in experiment [6], 0.00868 s⁻¹. Moreover, the association rate constant (kon) in the experiment with Human PD-L1 Dimer [2] turned out to be 4.32e+06 M⁻¹ s⁻¹; in experiment [3] it was 1.38e+06 M⁻¹ s⁻¹; in experiment [4], 956000 M⁻¹ s⁻¹; in the experiment with Human PD-L1 Dimer [5] it was 2.91e+06 M⁻¹ s⁻¹; in experiment [6], 547000 M⁻¹ s⁻¹. For the same molecule, the t1/2 in the experiment with Human PD-L1 Dimer [2] amounted to 96 min; in experiment [3], 17 min; in experiment [4], 0.4 min; in the experiment with Human PD-L1 Dimer [5], 565 min; in experiment [6] it was 1.3 min.

B5: H1H8323N (antibody, human IgG1, V domains shown)
VH: B4 VH
VL: B4 VL
As to B5, in experiment [1], the dissociation constant Kd worked out at 23.1 pM, the koff stood at 6.16e-05 s⁻¹, the kon stood at 2.67e+06 M⁻¹ s⁻¹ and the t1/2 turned out to be 188 min.

B6: H1H9336P (antibody, human IgG1, V domains shown)
VH: EVQLVESGGGLVQPGRSLRLSCAASGFTFDDFAMHWVRQAPGKGLEWVSGISWTGGNMDYANSVKGRFTISREDAKNSLYLQMNSLRAADTALYYCVKDIRGIVATGGAFDIWGRGTMVTVSS
VL: DIQMTQSPSSLSASVGDRVTISCRASQTISTYLNWFQQKPGKAPKLLIYVVSSLQSGVPSRFSGSGSGTDFTLTISSLQPEDFATYYCQQSYSTPFTFGPGTKVDIK
As for B6, the dissociation constant (Kd) in the experiment with Human PD-L1 Dimer [2] turned out to be 30.2 pM; in experiment [3], 733 pM; in experiment [4], 1380 pM; with Human PD-L1 Dimer [5], 78.6 pM; in experiment [6] it was 876 pM; in experiment [1], 62.2 pM. The koff with Human PD-L1 Dimer [2] was found to be 8.31e-05 s⁻¹; in experiment [3], 0.000788 s⁻¹; in experiment [4] it was 0.00125 s⁻¹; with Human PD-L1 Dimer [5] it was 0.000109 s⁻¹; in experiment [6], 0.000594 s⁻¹; in experiment [1], 6.16e-05 s⁻¹. Also, the kon with Human PD-L1 Dimer [2] came out at 2.75e+06 M⁻¹ s⁻¹; in experiment [3] it was 1.07e+06 M⁻¹ s⁻¹; in experiment [4], 909000 M⁻¹ s⁻¹; in the experiment with Human PD-L1 Dimer [5] it was 1.38e+06 M⁻¹ s⁻¹; in experiment [6], 679000 M⁻¹ s⁻¹; in experiment [1], 990000 M⁻¹ s⁻¹. Also, the t1/2 stood at 139 min in the experiment with Human PD-L1 Dimer [2]; 15 min in experiment [3]; 9.2 min in experiment [4]; 106 min with Human PD-L1 Dimer [5]; 19 min in experiment [6]; 188 min in experiment [1].

B7: H1H9329P (antibody, human IgG1, V domains shown)
VH: EVQLVESGGGLVQSGGSLRLSCAASGFTFSSYWMSWVRQAPGKGLEWVANIKQDGSEKYYVDSVKGRFTISRDNAKNSLYLQMNSLRADDTAVYYCARDDIVVVPAPMGYYYYYFGMDVWGQGTTVTVSS
VL: DIQMTQSPSSLSASVGDRVTITCRASQGIRNDLGWYQQKPGKAPKRLIYAASSLQSGVPSRFSGSGSGTEFTLTISSLQPEDFATYYCLQHNSYPYTFGQGTKLEIK
Consider B7, for which the Kd with Human PD-L1 Dimer [2] came to 689 pM; in experiment [3], 117000 pM; in experiment [4], 137000 pM; with Human PD-L1 Dimer [5], 259 pM; in experiment [6], 76900 pM; in experiment [1], 386 pM. The koff with Human PD-L1 Dimer [2] stood at 0.00267 s⁻¹; in experiment [3], 0.329 s⁻¹; in experiment [4], 0.364 s⁻¹; with Human PD-L1 Dimer [5], 0.000768 s⁻¹; in experiment [6], 0.135 s⁻¹; in experiment [1], 0.000672 s⁻¹. Moreover, the on-rate (kon) in the experiment with Human PD-L1 Dimer [2] came to 3.87e+06 M⁻¹ s⁻¹; in experiment [3], 2.82e+06 M⁻¹ s⁻¹; in experiment [4] it was 2.66e+06 M⁻¹ s⁻¹; in the experiment with Human PD-L1 Dimer [5] it was 2.97e+06 M⁻¹ s⁻¹; in experiment [6], 1.76e+06 M⁻¹ s⁻¹; in experiment [1], 1.74e+06 M⁻¹ s⁻¹. For the same molecule, the t1/2 with Human PD-L1 Dimer [2] stood at 4.3 min; in experiment [3], 0.04 min; in experiment [4], 0.03 min; in the experiment with Human PD-L1 Dimer [5] it was 15 min; in experiment [6], 0.09 min; in experiment [1], 17 min.
